In patent US8394929B2, “Nogo receptor-mediated blockade of axonal growth” (Yale University, priority 2000, dated 2013):

Assays:
[1] = system: CNS myelin induced growth cone collapse; test: Blockade of CNS myelin induced growth cone collapse in chick DRG cultures; format: cell-based
Description: In the growth cone collapse assay, the response to Nogo was measured in the presence of various potential antagonistic peptides. […] This blockade supports the hypothesis that Nogo is a primary inhibitory component of CNS myelin.
To determine the antagonistic activity of Peptide 140 against CNS myelin, the above synthetic peptide was added approximately 10 min before application of CNS myelin. 30 min later, cultures were fixed and growth cone collapse was assessed following staining with rhodamine-phalloidin. For neurite outgrowth assays, plastic chamber slide were coated with 100 μg ml^−1 poly-L-lysine, washed, and dried. 3 μl drops of PBS containing CNS myelin were spotted and dried. Slides were then rinsed and coated with 10 μg ml fs24^−1 laminin before addition of dissociated E12 chick DRGs. Peptide 140, or the scrambled version of Peptide 140, was added at the time of cell plating. Cultures were grown for 5-7 h after which neurite outgrowth was assessed.

wild-type NgR (wtNgR) = target: T1, wild-type NgR (wtNgR) (Mus musculus, UniProt Q99PI8); test: Growth cone collapse in E7 retinal ganglion cells infected with HSV wild-type NgR; format: cell-based
T1 construct: expressed in transfected cells; host or cells: chick E7 retinal ganglion cell explants infected with recombinant HSV
T1 sequence (Q99PI8 27-447): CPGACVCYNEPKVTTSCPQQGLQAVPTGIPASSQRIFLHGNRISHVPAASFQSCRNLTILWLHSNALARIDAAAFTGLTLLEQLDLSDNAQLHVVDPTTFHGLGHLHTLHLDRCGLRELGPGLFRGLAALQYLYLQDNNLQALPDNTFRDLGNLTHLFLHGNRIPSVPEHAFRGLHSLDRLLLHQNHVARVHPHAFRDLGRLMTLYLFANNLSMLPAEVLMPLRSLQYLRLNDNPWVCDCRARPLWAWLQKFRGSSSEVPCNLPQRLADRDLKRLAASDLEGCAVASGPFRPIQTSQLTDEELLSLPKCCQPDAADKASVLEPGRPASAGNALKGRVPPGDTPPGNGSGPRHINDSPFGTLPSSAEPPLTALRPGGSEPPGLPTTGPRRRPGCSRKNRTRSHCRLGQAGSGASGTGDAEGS
Description: (§1) Both dorsal root ganglion and retinal neurons from E7 chick embryos were examined. The Nogo responses in the dorsal root ganglion neurons from this developmental stage are weak but slight responses can be detected in some cultures (data not shown).
(§2) Because the mouse NgRCT domain was determined to be dispensable for hNogo-A (1055-1120) binding, the ability of NgRΔCT to mediate Nogo-dependent inhibition was examined. HSVNgR constructs transfected into HEK293T cells mediated the expression of mNgR proteins of the predicted molecular weight, as determined by SDS-PAGE and anti-Myc and anti-NgR immunoblotting (FIG. 19A). Day E7 chick retinal ganglion cells (RGCs) were grown for 12 hr, then further incubated for 24 hr with HSVNgR preparations. Explants were fixed with 4% paraformaldehyde with 0.1 M PO4 and 20% sucrose and stained with phalloidin or with anti-myc antibodies. HSVNgR protein expression was detected in axons of infected (RGC) cultures (FIG. 19B).
Growth cone collapse in response to GST-hNogo-A (1055-1120) was investigated in infected RGC cultures. Retinal explants infected with recombinant viral preparations of PlexinA1 (PlexA1), wild-type NgR (wtNgR), NgRL1 chimeric receptor in which the GPI domain has been replaced by the transmembrane region and cytoplasmic tail from the mouse adhesion protein L1 (NgRL1), or NgR carboxy terminal deletion mutant (NgRΔCT) for 12 hr. […]

PlexinA1 (PlexA1) = test: Growth cone collapse in E7 retinal ganglion cells infected with control HSV PlexinA1; format: cell-based
Text: as §1
Growth cone collapse in response to GST-hNogo-A (1055-1120) was investigated in infected RGC cultures. Retinal explants infected with recombinant viral preparations of PlexinA1 (PlexA1), wild-type NgR (wtNgR), NgRL1 chimeric receptor in which the GPI domain has been replaced by the transmembrane region and cytoplasmic tail from the mouse adhesion protein L1 (NgRL1), or NgR carboxy terminal deletion mutant (NgRΔCT) for 12 hr. Following infection, the cells were treated for 30 min with 0, 50, 250, or 500 nM GST-hNogo-A (1055-1120) (GrandPre et al., Nature 403: 439-444, 2000), fixed with 4% paraformaldehyde with 0.1 M PO4 and 20% sucrose, and stained with phalloidin. […] Cells infected with NgRΔCT were insensitive to GST-hNogo-A (1055-1120). The CT region of NgR is therefore required for effective NgR inhibitory signaling.

[2] = target: T2, NgR carboxy terminal deletion mutant (NgRΔCT) (Mus musculus, UniProt Q99PI8); test: Growth cone collapse in E7 retinal ganglion cells infected with NgRΔCT; format: cell-based
T2 construct: expressed in transfected cells; host or cells: chick E7 retinal ganglion cell explants infected with recombinant HSV
T2 sequence (Q99PI8 with tags, fused parts or gaps): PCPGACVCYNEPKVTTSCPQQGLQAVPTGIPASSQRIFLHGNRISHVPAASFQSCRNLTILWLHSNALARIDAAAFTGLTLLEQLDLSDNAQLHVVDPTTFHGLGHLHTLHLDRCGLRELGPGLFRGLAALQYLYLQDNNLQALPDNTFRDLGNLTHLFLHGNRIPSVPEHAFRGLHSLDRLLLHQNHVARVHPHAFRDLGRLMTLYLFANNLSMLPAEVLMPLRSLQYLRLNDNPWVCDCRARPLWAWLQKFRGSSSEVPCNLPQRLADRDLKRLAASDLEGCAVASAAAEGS
Description: as §2
Growth cone collapse in response to GST-hNogo-A (1055-1120) was investigated in infected RGC cultures. Retinal explants infected with recombinant viral preparations of PlexinA1 (PlexA1), wild-type NgR (wtNgR), NgRL1 chimeric receptor in which the GPI domain has been replaced by the transmembrane region and cytoplasmic tail from the mouse adhesion protein L1 (NgRL1), or NgR carboxy terminal deletion mutant (NgRΔCT) for 12 hr. Following infection, the cells were treated for 30 min with 0, 50, 250, or 500 nM GST-hNogo-A (1055-1120) (GrandPre et al., Nature 403: 439-444, 2000), fixed with 4% paraformaldehyde with 0.1 M PO4 and 20% sucrose, and stained with phalloidin. […]

NgRΔCT = target: T3, NgRΔCT (Mus musculus, UniProt Q99PI8); test: AP-hNogo-A (1055-1120) binding to COS-7 cells transfected with NgRΔCT
T3 construct: encodes residues 26 to 305 and 443 to473 of mNgR; vector secretion signal (pSecTag2) (N); 6xHis (C); expressed in transfected cells; host or cells: COS-7
T3 sequence (Q99PI8 with tags, fused parts or gaps): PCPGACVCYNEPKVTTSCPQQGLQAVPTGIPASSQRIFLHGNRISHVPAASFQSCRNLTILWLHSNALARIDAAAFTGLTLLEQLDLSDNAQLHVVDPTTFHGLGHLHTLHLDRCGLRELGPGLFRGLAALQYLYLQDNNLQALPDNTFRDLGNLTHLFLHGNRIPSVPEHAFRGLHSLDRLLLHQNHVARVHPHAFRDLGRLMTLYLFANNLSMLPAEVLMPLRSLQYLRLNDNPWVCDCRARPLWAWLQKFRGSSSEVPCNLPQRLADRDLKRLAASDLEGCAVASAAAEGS
Text: The NgRΔCT contruct encodes residues 26 to 305 and 443 to473 of mNgR, thereby including the LRR and GPI regions of mNgR. Primers MycNgR ([…]) and 2NgRt313 ([…]) were used to amplify a sequence from the wtNgR-pSecTag2Hygro plasmid. Primers TM/GPI5 (5′-[…]-3′) and NgR3X (above) were used to amplify a sequence from the wtNgR-pSecTag2Hygro plasmid. The amplified sequences were ligated together at the NotI site and then ligated into the BamHI/XhoI sites of pSecTag2.
To determine whether mNgR or mNgR deletion mutants bound to hNogo-A (1055-1120), wtNgR or mNgR deletion mutants were transfected into COS-7 cells. Forty-eight hours after the transfection, the transfected COS-7 cells were washed with hanks balanced salt solution containing 20 mM sodium HEPES, pH 7.05, and 1 mg/ml bovine serum albumin (BSA) [hereinafter “HBH”]. Cells were then incubated for 2 hours at 23° C. with a conditioned medium enriched with purified AP-hNogo-A (1055-1120) diluted in HBH. AP-fusion protein was detected as previously described for AP-Sema3A (Takahashi et al., Nature Neurosci. 1:487-493, 1998).

[3] = listed as GST-hNogo-A (1055-1120)

Peptide 140: synthetic peptide of amino acids #1055-1094 of the human NogoA protein, acetylated and amidated at the termini (Ac-RIYKGVIQAIQKSDEGHPFRAYLESEVAISEELVQKYSNS-NH2; UniProt Q9NQC3 1055-1094, looked up, fragment)
blockade of CNS myelin induced growth cone collapse (in words) ([1]; high doses / higher concentrations of CNS myelin): had no effect on inhibitory activity | blockade of CNS myelin induced growth cone collapse (in words) ([1]; low dose / lowest concentrations of CNS myelin): reduces myelin induced growth cone collapse to control levels

B1: GST-Nogo: GST fusion protein of the 66 amino acid lumenal-extracellular fragment of Nogo-A, expressed in E. coli (protein)
chain: RIYKGVIQAIQKSDEGHPFRAYLESEVAISEELVQKYSNSALGHVNCTIKELRRLFLVDDLVDSLK
modifications: also: GST fusion protein
notes: GST fusion protein of the 66 amino acid lumenal-extracellular fragment of Nogo-A, expressed in E. coli
growth cone collapse response (in words) (wild-type NgR (wtNgR); [3]): underwent growth cone collapse | growth cone collapse response (in words) (wild-type NgR (wtNgR); listed as Nogo-66): sensitive to Nogo-66-induced collapse | growth cone collapse response (in words) (PlexinA1 (PlexA1); [3]): did not respond | growth cone collapse response (in words) (PlexinA1 (PlexA1); listed as Nogo-66): does not alter Nogo responses | growth cone collapse response (in words) [2]: insensitive

B2: AP-Nogo: fusion protein of His6 tag, placental alkaline phosphatase (AP) and the 66 amino acid active domain of Nogo (protein)
chain: HHHHHHIIPVEEENPDFWNREAAEALGAAKKLQPAQTAAKNLIIFLGDGMGVSTVTAARILKGQKKDKLGPEIPLAMDRFPYVALSKTYNVDKHVPDSGATATAYLCGVKGNFQTIGLSAAARFNQCNTTRGNEVISVMNRAKKAGKSVGVVTTTRVQHASPAGTYAHTVNRNWYSDADVPASARQEGCQDIATQLISNMDIDVILGGGRKYMFRMGTPDPEYPDDYSQGGTRLDGKNLVQEWLAKRQGARYVWNRTELMQASLDPSVTHLMGLFEPGDMKYEIHRDSTLDPSLMEMTEAALRLLSRNPRGFFLFVEGGRIDHGHHESRAYRALTETIMFDDAIERAGQLTSEEDTLSLVTADHSHVFSFGGYPLRGSSIFGLAPGKARDRKAYTVLLYGNGPGYVLKDGARPDVTESESGSPEYRQQSAVPLDEETHAGEDVAVFARGPQAHLVHGVQEQTFIAHVMAFAACLEPYTACDLAPPAGTTDAAHPGRIYKGVIQAIQKSDEGHPFRAYLESEVAISEELVQKYSNSALGHVNCTIKELRRLFLVDDLVDSLK
binding (in words) (NgRΔCT): bound
